In patent publication US20140304853:

Columns and labels:
Test in all cases: cell_activity
[1] = tested on: ZFN 34480 (synthetic); settings: pair 34480/34481, A-genome; B 11946, D 11790; wheat protoplasts
[2] = tested on: ZFN 34457 (synthetic); settings: pair 34456/34457, A-genome; B 1716, D 10399; wheat protoplasts
[3] = tested on: ZFN 34472 (synthetic); settings: pair 34472/34473, A-genome; B 100300, D 87770; wheat protoplasts
[4] = tested on: ZFN 29730 (synthetic); settings: pair 29732/29730, D-genome, donor pDAS000152 10:1, SEC protoplasts; A 6717, B 6306
[5] = tested on: ZFN 34474 (synthetic); settings: pair 34474/34475, A-genome; B 251142, D 202711; wheat protoplasts
[6] = tested on: ZFN 34483 (synthetic); settings: pair 34482/34483, A-genome; B 33888, D 28719; wheat protoplasts
[7] = tested on: ZFN 34481 (synthetic); settings: pair 34480/34481, A-genome; B 11946, D 11790; wheat protoplasts
[8] = tested on: ZFN 34477 (synthetic); settings: pair 34476/34477, A-genome; B 56001, D 44459; wheat protoplasts
[9] = tested on: ZFN 34482 (synthetic); settings: pair 34482/34483, A-genome; B 33888, D 28719; wheat protoplasts
[10] = tested on: ZFN 34471 (synthetic); settings: pair 34470/34471, A-genome; B 156139, D 134694; wheat protoplasts
[11] = tested on: ZFN 34456 (synthetic); settings: pair 34456/34457, A-genome; B 1716, D 10399; wheat protoplasts
[12] = tested on: ZFN 29732 (synthetic); settings: pair 29732/29730, D-genome, donor pDAS000152 10:1, SEC protoplasts; A 6717, B 6306
[13] = tested on: ZFN 34476 (synthetic); settings: pair 34476/34477, A-genome; B 56001, D 44459; wheat protoplasts
[14] = tested on: ZFN 34473 (synthetic); settings: pair 34472/34473, A-genome; B 100300, D 87770; wheat protoplasts
[15] = tested on: ZFN 34470 (synthetic); settings: pair 34470/34471, A-genome; B 156139, D 134694; wheat protoplasts
[16] = tested on: ZFN 34478 (synthetic); settings: pair 34478/34479, A-genome; B 2731, D 3069; wheat protoplasts
[17] = tested on: ZFN 34475 (synthetic); settings: pair 34474/34475, A-genome; B 251142, D 202711; wheat protoplasts
[18] = tested on: ZFN 34479 (synthetic); settings: pair 34478/34479, A-genome; B 2731, D 3069; wheat protoplasts

## ACCATGGGGATGGAGTCGAGGAGNGCGT (double strand) [34480 site]
[1]
  activity (NHEJ events per million reads): 11800

## ACCTCCCCCGCCGTCGCATTCTCNGGCG (double strand) [34457 site]
[2]
  activity (NHEJ events per million reads): 12600

## ACGCCGACGCGGCCGGACGCGCGGGCGT (double strand) [34472 site]
[3]
  activity (NHEJ events per million reads): 120000

## AGGCAGCACGTGCTCCTGATGCGGGACT (double strand) [29730 site]
[4]
  activity (ppm NHEJ editing): 7910

## CAGACGCCGACGCGGCCGGACGCGCGGG (double strand) [34474 site]
[5]
  activity (NHEJ events per million reads): 248000

## CATCACGGGCCAGGTCCCCCGCCGCATG (double strand) [34483 site]
[6]
  activity (NHEJ events per million reads): 28700

## CCATCACGGGCCAGGTCCCCCGCCGCAT (double strand) [34481 site]
[7]
  activity (NHEJ events per million reads): 11800

## CCTCCGGCCCGGGGGCCACCAACCTCGT (double strand) [34477 site]
[8]
  activity (NHEJ events per million reads): 48300

## CGACCATGGGGATGGAGTCGAGGAGNGC (double strand) [34482 site]
[9]
  activity (NHEJ events per million reads): 28700

## CGTCGGCGTCTGCGTCGCCACCTCCGGC (double strand) [34471 site]
[10]
  activity (NHEJ events per million reads): 178000

## CNGCGGCCATGGCGGCGGCGAGGGTTTG (double strand) [34456 site]
[11]
  activity (NHEJ events per million reads): 12600

## GATCCCAAGCGGTGGTGCTTTCAAGGAC (double strand) [29732 site]
[12]
  activity (ppm NHEJ editing): 7910

## GCGACGCAGACGCCGACGCGGCCGGACG (double strand) [34476 site]
[13]
  activity (NHEJ events per million reads): 48300

## GCGTCGCCACCTCCGGCCCGGGGGCCAC (double strand) [34473 site]
[14]
  activity (NHEJ events per million reads): 120000

## GGCCGGACGCGCGGGCGTANCCGGACGC (double strand) [34470 site]
[15]
  activity (NHEJ events per million reads): 178000

## GGGATGGAGTCGAGGAGNGCGTCNGCGA (double strand) [34478 site]
[16]
  activity (NHEJ events per million reads): 3070

## GTCGCCACCTCCGGCCCGGGGGCCACCA (double strand) [34475 site]
[17]
  activity (NHEJ events per million reads): 248000

## TGGTCGCCATCACGGGCCAGGTCCCCCG (double strand) [34479 site]
[18]
  activity (NHEJ events per million reads): 3070
